Results as given in publication PMC8998743, “Dimerization Activity of a Disordered N-Terminal Domain from Drosophila CLAMP Protein” (International Journal of Molecular Sciences, 2022).

Tests used:
[1] = target: the molecule itself; assay: cross-linking; thioredoxin-tagged proteins at 5 μM, increasing concentrations of glutaraldehyde, 10 min at room temperature, 20 mM HEPES pH 7.7, 150 mM NaCl, 20 mM imidazole, 1 mM β-mercaptoethanol; SDS-PAGE, silver staining
[2] = target: the molecule itself; assay: SEC; Superdex S200 size-exclusion chromatography of purified CLAMP derivatives
[3] = target: the molecule itself; assay: SAXS; in solution, BM29 BioSAXS beamline (ESRF); molecular weight from extrapolated I0; CLAMP 1-153 at 2.3 mg/mL, CLAMP 1-113 at 1.0 and 7.0 mg/mL, CLAMP 87-153 at 2.5 and 10.0 mg/mL

B1: thioredoxin-tagged CLAMP^1–127 (domain or fragment, D. melanogaster, UniProt Q9V9N4 1-127, looked up)
chain: MEDLTKNIIFTNAINGQPATIQYQTADGTILKQPKIEGQKTEQQPTFYYTTNGNGGTVNLAQLATTDDNKTCYIAQPVGGYNYALVNGMPLNQGAALGIATVDAQGRIQIVNQNKPIAANTISNISF
notes: Used in glutaraldehyde cross-linking with the thioredoxin tag on; source: E. coli BL21(DE3), purified
B1: binds [1].

B2: CLAMP^1–127 (purified, tag cleaved) (domain or fragment, D. melanogaster, UniProt Q9V9N4 1-127, looked up)
chain: MEDLTKNIIFTNAINGQPATIQYQTADGTILKQPKIEGQKTEQQPTFYYTTNGNGGTVNLAQLATTDDNKTCYIAQPVGGYNYALVNGMPLNQGAALGIATVDAQGRIQIVNQNKPIAANTISNISF
notes: source: E. coli BL21(DE3), purified (Ni-NTA, TEV cleavage, SOURCE15Q)
B2: binds [2].

B3: CLAMP^1–113 (purified, tag cleaved) (domain or fragment, D. melanogaster, UniProt Q9V9N4 1-113, looked up)
chain: MEDLTKNIIFTNAINGQPATIQYQTADGTILKQPKIEGQKTEQQPTFYYTTNGNGGTVNLAQLATTDDNKTCYIAQPVGGYNYALVNGMPLNQGAALGIATVDAQGRIQIVNQ
notes: as for B2
With B3 the “stoichiometry N” value [3] was 2.

B4: CLAMP^1–153 (purified, tag cleaved) (domain or fragment, D. melanogaster, UniProt Q9V9N4 1-153, looked up)
chain: MEDLTKNIIFTNAINGQPATIQYQTADGTILKQPKIEGQKTEQQPTFYYTTNGNGGTVNLAQLATTDDNKTCYIAQPVGGYNYALVNGMPLNQGAALGIATVDAQGRIQIVNQNKPIAANTISNISFKCDVCSDMFPHLALLNAHKRMHTDGE
notes: as for B2
For B4, the “stoichiometry N” value [3] was 2.
